This experiment deals with NNN-GFPglyc (GnTI CTS region fused to the glycosylation reporter GFPglyc) (Nicotiana tabacum (legend of Figure 1 and methods); the running text says N. benthamiana). Kind of experiment: FRET or BRET; two-photon FRET-FLIM in living N. benthamiana leaf epidermal cells, Golgi bodies, leaves treated with 25 uM latrunculin B; donor NNN-GFPglyc, acceptor CTS-mRFP; a decrease of the donor lifetime by 0.20 ns or 8% taken as interaction. (In general: BRET reads energy transfer from a luciferase to a nearby fluorophore.)

“NNN-mRFP (GnTI CTS region fused to mRFP) (domain or fragment)” had an FRET efficiency E of 14.6%, a donor lifetime with acceptor (tau DA) of 2.08 ns and a lifetime contrast (delta tau) of 0.36 ns.

Substance “RNN-mRFP (chimeric CTS region: ST cytoplasmic tail, GnTI transmembrane domain and stem, fused to mRFP) (from UniProt P13721 1-9)” yielded an FRET efficiency E of 10.8%, a donor lifetime with acceptor (tau DA) of 2.18 ns and a lifetime contrast (delta tau) of 0.26 ns.

The values are drawn from publication PMC4282539.
